Source: publication PMC4838342 (Nucleic Acids Research, 2015)

How the values were obtained:
[1] = biological target: H3 115–135 peptide; experiment: NMR titration; 1H-15N HSQC of 15N-labelled sNASP (41–330, Δ101–159) titrated with H3 115–135 peptide in PBS; 298 K; assignments in 20 mM NaPO4 pH 7.0, 100 mM NaCl, 5 mM β-mercaptoethanol; settings: both partners purified
[2] = biological target: MBP H3 116–135 (human); experiment: SEC; analytical gel filtration, Superdex S200 10/300 GL, 20 mM Hepes-KOH pH 7.5, 200 mM sodium chloride; fractions on SDS-PAGE, Coomassie; settings: both partners purified

H3 115–135 peptide, sequence (peptide, as listed by the source): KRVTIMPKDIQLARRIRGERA

Binder	binding result [1]	binding result [2]
sNASP (41–330, Δ101–159) (domain or fragment, 15N (and 13C, 2H) isotope labelled) SEAKKLLGLGQKHLVMGDIPAAVNAFQEAASLLGKKYGETANECGEAFFFYGKSLLELARLENKSLQENEEEEIGNLELAWDMLDLAKIIFKRQETKEAQLYAAQAHLKLGEVSVESENYVQAVEEFQSCLNLQEQYLEAHDRLLAETHYQLGLAYGYNSQYDEAVAQFSKSIEVIENRMAVLNEQVKEAEGSSAEYKKEIEELKELLPEIREKIEDAKESQRSGNVAELA	binds	
Sim3 (as used in gel filtration) (natural protein, Schizosaccharomyces pombe, UniProt Q9USQ4 1-396, looked up, source: bacteria, purified) MSSDTKTLENSKGNSATDADTKNPSSSDSRAIEQLVTQGNMAYAQKNYEEAVDKYGQALMQSESIHGSESLENRNVLWLYGKSLFQIAIENSQVLGNALGAKESVSQATESFEEPEAIGSFTFSGQKIENKYTVNEENSSIAHPEKESEEKETNEASPASEEDEDDFNVAWEVLDLTRVMQSKAVDAYPDSKDEKIRLADIYDLLGELSLEIENFSQASQDLKTALEWKEKVYNVSNNTLLSEAHYKLALALEFTNPEDPSNKSRACEHVEKAAEILKNVLNERENEVTDKKGKGKQKAEESTLTSDLENLREMLSELEQKTLDLKHGAPSLEEAVMSKMHESSLLSKDSSSLAQAVAEAVKNANDLGGLVKRKRTKQEVTSSSQKEGPKDKKKKD		binds
